Measured values published in patent publication US20060253917A1 (published 2006).

T1: OsMADS45 aa 50-198 (Oryza sativa, UniProt P0C5B0 50-198)
T1 construct: bait, Gal4 DBD fusion; also called PN20231; O. sativa MADS box protein MADS45
T1 sequence: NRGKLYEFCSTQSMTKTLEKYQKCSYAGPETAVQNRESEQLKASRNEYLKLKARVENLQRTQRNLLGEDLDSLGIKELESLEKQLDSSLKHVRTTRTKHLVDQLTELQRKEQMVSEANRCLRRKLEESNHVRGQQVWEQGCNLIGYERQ

T2: OsHOS59 aa 1-100 (Oryza sativa, UniProt Q94LW4 113-212)
T2 construct: bait, Gal4 DBD fusion; also called PN20559; O. sativa Homeobox Protein HOS59, Fragment
T2 sequence: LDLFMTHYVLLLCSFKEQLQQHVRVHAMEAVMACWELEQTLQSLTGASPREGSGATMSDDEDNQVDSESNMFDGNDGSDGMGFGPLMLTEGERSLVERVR

T3: OsCS aa 316-583 (Oryza sativa, UniProt A2Y0X2 316-583)
T3 construct: bait, Gal4 DBD fusion; also called PN19707
T3 sequence: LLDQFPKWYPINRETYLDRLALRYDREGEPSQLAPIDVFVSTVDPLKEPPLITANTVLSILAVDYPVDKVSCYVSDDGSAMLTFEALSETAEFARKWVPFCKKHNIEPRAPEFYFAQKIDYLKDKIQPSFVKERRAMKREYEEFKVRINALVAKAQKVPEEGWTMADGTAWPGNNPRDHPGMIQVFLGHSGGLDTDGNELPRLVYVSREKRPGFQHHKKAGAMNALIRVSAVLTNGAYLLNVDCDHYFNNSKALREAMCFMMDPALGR

B1: OsMADS15 aa 92-237 (other)
chain: CHEYRKLKAKIETIQKCHKHLMGEDHESLNLKELQQLEQQLESSLKHIISRKSHLMLESISELQKKERSLQEENKALQKELVERQKNVRGQQQVGQWDQTQVQAQAQAQPQAQTSSSSSSMLRDQQALLPPQNICYPPVMMGERND
notes: prey, AD fusion; also called PN20842; O. sativa MADS box protein MADS15
B2: OsFDRMADS6 aa 115-246 (other)
chain: EDLESLNLKELQQLEQQLENSLKHIRSRKSQLMLESINELQRKEKSLQEENKVLQKELVEKQKVQKQQVQWDQTQPQTSSSSSSFMMREALPTTNISNYPAAAGERIEDVAAGQPQHVRIGLPPWMLSHING
notes: prey, AD fusion; also called PN19766; O. sativa MADS-box protein FDRMADS6
B3: OsMADS5 aa 113-225 (other)
chain: LLGEDLVPLSLKELEQLENQIEISLMNIRSSKNQQLLDQVFELKRKEQQLQDANKDLKRKIQETSGENMLHISCQDVGPSGHASEANQEFLHHAICDPSLHIGYQAYMDHLNQ
notes: prey, AD fusion; also called PN20770; O. sativa MADS box protein MADS5
B4: OsMADS13 aa 75-263 (other)
chain: ACGSTSGAPLIEVNAQQYYQQESAKLRHQIQMLQNTNKHLVGDNVSNLSLKELKQLESRLEKGIAKIRARKNELLASEINYMAKREIELQNDNMDLRTKIAEEEQQLQQVTVARSAAMELQAAAAAQQQQQNPFAVAAAQLDMKCFFPLNLFEAAAQVQAVAAQRQQIIPTELNLGYHHHLAIPGATAA
notes: prey, AD fusion; also called PN20668; O. sativa MADS box protein MADS13
B5: OsFDRMADS8 aa 104-233 (other)
chain: LDESRRKILGENLEGCSIEELRGLEMKLEKSLHNIRLKKTELLERQIAKLKEKERTLLKDNENLRGKHRNLEAAALVANHMTTTTAPAAWPRDVPMTSSTAGAADAMDVETDLYIGLPGTERSSNRSETG
notes: prey, AD fusion; also called PN20698; O. sativa MADS-box protein FDRMADS8
B6: OsMADS18 aa 82-154 (other)
chain: EPNTEDQENWGDEYGILKSKLDALQKSQRQLLGEQLDTLTTKELQQLEHQLEYSLKHIRSKKNQLLFESISEL
notes: prey, AD fusion; also called PN20912
B7: OsMADS18 aa 57-224 (other)
chain: FSSHSSMEGILERYQRYSFDERAVLEPNTEDQENWGDEYGILKSKLDALQKSQRQLLGEQLDTLTTKELQQLEHQLEYSLKHIRSKKNQLLFESISELQKKEKSLKNQNNVLQKLMETEKEKNNAIINTNREEQNGATPSTSSPTPVTAPDPIPTTNNSQSQPRGSGE
notes: prey, AD fusion; also called PN20912; O. sativa MADS box protein MADS18
B8: OsFDRMADS8 aa 63-186 (other)
chain: LQKTIDRYKAYTKDHVNNKTIQQDIQQVKDDTLGLAKKLEALDESRRKILGENLEGCSIEELRGLEMKLEKSLHNIRLKKTELLERQIAKLKEKERTLLKDNENLRGKHRNLEAAALVANHMTT
notes: prey, AD fusion; also called PN20698
B9: OsMADS3 aa 48-177 (other)
chain: FSSRGRLYEYANNSVKSTVERYKKANSDTSNSGTVAEVNAQHYQQESSKLRQQISSLQNANSRTIVGDSINTMSLRDLKQVENRLEKGIAKIRARKNELLYAEVEYMQKREVELQNDNMYLRSKVVENER
notes: prey, AD fusion; also called PN20700; O. sativa MADS box protein MADS3
B10: OsBAB07943 aa 525-767 (other)
chain: LADSLNKARSLIHPPVKKPSKLGENLTSLAAVVENEHKRLLARKSIIEKRKEDLERQILEKEKEEEKKRLSVLKKSAEDERIRLLNDVKLREQERIRRQLVEKEKIEAEELLQKQIKEIAKRGGKKPVLQGEVTKEAVMELAMNEQFKERQEMEKKLQKTGKQMDYLERAKRQEEAPLIEQAFQKRLEVEKILHEQEQLREIELSKQHHAGDLQEKNRLSRMLEHKNIFQERIVQRREAEFSR
notes: prey, AD fusion; also called PN23832; O. sativa Putative Eukaryotic Translation Initiation Factor 3 Large Subunit
B11: OsPN24092 aa 797-948 (other)
chain: SIKDQVQTYLEEINTLKSSKNEKEEMIERLQSEIRSLKFEYDNLKILMSTNDSEKHNLASQVLKLRRALESREDVKQNGVKSDEDNHHATSKRIKHDDGTTGSRNVLPSTNRHNANGDCNGHDRRDAAHDQSVKELEILKERNTALEEELKE
notes: prey, AD fusion; also called Novel Protein PN24092, Similar to O. sativa Putative Myosin
B12: OsPN23829 aa 2-226 (other)
chain: ALSVEKTSSGREYKVKDLSQADFGRLEIELAEVEMPGLMACRAEFGPSQPFKGARISGSLHMTIQTAVLIETLTALGAEVRWCSCNIFSTQDHAAAAIARDSAAVFAWKGETLEEYWWCTERCLDWGVGGGPDLIVDDGGDATLLIHEGVKAEEEFEKSGKVPDPESTDNAEFKIVLTIIRDGLKSDPSKYRKMKERLVGVSEETTTGVKRLYQMQETGALLFPA
notes: prey, AD fusion; also called Novel Protein PN23829 Putative S-Adenosyl-L-Homocysteine Hydrolase
B13: OsPN23830 aa 4-207 (other)
chain: LEDFQASVEALPAMLQRNYSLMRELDKSLQGVQTGNEQRCQQEIEDIKHGLESGSITYDPAKLKFSDEAIEEQKHCVRIADEKVALASQTYDLVDAHIQQLDQFMRKLEELRQEKEAATTAAAAAAAAAASVATGTPVAATVTASAGTSTADNTPKGGRSSERGRGGRKKTAKVPTEQPAPAIDLELPVDPNEPTYCLCNQVSY
notes: prey, AD fusion; also called Novel Protein PN23830, Similar to A. thaliana Putative PHD-Finger Protein
B14: OsPN23388 aa 229-331 (other)
chain: LKTAKEKGLQRLVHLSSDLARQVATILENAQTFQENRKIGDVPSVNSNSSGVPSTQGEIDEIHQERQKFVEVAKKNVRDRRARRMQSCEVPIHPITPVKLMES
notes: prey, AD fusion; also called Novel Protein PN23388
B15: OsAAK00972 aa 236-350 (other)
chain: AEGGSKGEGVSSNPQESTANAAPEISAAEKQELQNKMAKLMAMLDEVDRKYKHYYHQMQIVVSSFDMVAGSGAAKPYTAVALQTISKHFRCLKDAINDQINVIRKKLGEEESSSG
notes: prey, AD fusion; also called PN23253; O. sativa Putative Homeodomain Protein OsAAK00972
B16: OsPN23830 aa 1-169 (other)
chain: MGFLEDFQASVEALPAMLQRNYSLMRELDKSLQGVQTGNEQRCQQEIEDIKHGLESGSITYDPAKLKFSDEAIEEQKHCVRIADEKVALASQTYDLVDAHIQQLDQFMRKLEELRQEKEAATTAAAAAAAAAASVATGTPVAATVTASAGTSTADNTPKGGRSSERGRG
notes: prey, AD fusion
B17: OsAAG13633 aa 799-951 (other)
chain: IRSLKFEYDNLKILMSTNDSEKHNLASQVLKLRRALESREDVKQNGVKSDEDNHHATSKRIKHDDGTTGSCNVLPSTNRHNANGDCNGHDRRDAAHDQSVKELEILKERNTALEEELKELHGRYSEISLKFAEVEGERQQLVMTVRALKNSLR
notes: prey, AD fusion; also called PN25701; O. sativa Putative Myosin
B18: OsPN29116 aa 1-169 (other)
chain: GRKPVAAQHYNKGDKDGTSTGSRCTSVAWVPEREGIFVVSHSDGNLYVYDKCKDGNTECTFPAIKDPAQLMISHAKSSKSNPIARWHVCQGSINAISFSPDGAYLATVGRDGYLRVFDFSKEQLIFGGKSYYGALLCCTWSSDGKYLLTGGEDDLVQVWSMDDRKIVAW
notes: prey, AD fusion; also called Novel Protein PN29116, Fragment
B19: OsPN29113 aa 1-92 (other)
chain: CKVSYIDAILGTTVKVPTVDGMVDLKIPSGTQPGTTLVMSKKGVPLLGKSNARGDQLVRVQVEIPKRLSSDERKLIEELANLNKAQTANSRR
notes: prey, AD fusion; also called O. sativa DNAJ Homologue
B20: OsPN29115 aa 1-188 (other)
chain: VSFPYSPRPAALAAGARASRVSPVVVAAGGGHQRLMGSLTNTQGLRFGVVVARFNEIVTNLLLQGALETFERYSVKKENITVLSVPGSFEIPVAAQKLGKSGKFDANFVHWRCAFRGDTTHYGAVANSAASGVLSAGLSAEIPCIFGVLTCDDMDQALNRAGGKAGNKGAEAALTAIEMASLFQHHLA
notes: prey, AD fusion; also called Novel Protein PN29115, Fragment, Similar to A. thaliana 6,7-Dimethyl-8-Ribityllumazine Synthase Precursor
B21: OsPN29117 prey clone -7-151 (other)
chain: MLVQRRDGDTGPAVRLRVSHGASFRDVAVPAHSTFGELKGVLTQATGVEPERQRLFFRGKEKSDNEFLHTAGVKDGAKLLLLEKPAPANVEQRAEPVIMDESMMKACEAVGRVRAEVDRLSAKVCDLEKSVFAGRKIEDKDFVVLTELLMM
notes: prey, AD fusion; clone includes a small portion (-7 to 0) of the 5' untranslated region; also called Novel Protein PN29117
B22: OsPN29077 aa 1-242 (other)
chain: VEAQKKIEAAIRQKGIDENWEAALEHNPEAFARVVMLYVDMEVNGVPLKAFVDSGAQSTIISKSCAERCGLLRLLDQRYRGVAIGVGQSEILGRIHVAPIKIGHVFYPCSFTVLDAPNMEFLFGLDMLRKHQCIIDLKDNVLRVGGGEVSVPFLQEKDIPSHIRDEEKLSKLASLSQGAAGESSTAREKTPDAPPRAPTTGAPAVNPPQPQGGGDFEAKVTKLVELGFDRASVIQALKLFNG
notes: prey, AD fusion; also called Novel Protein PN29077, Fragment, Similar to A. thaliana DNA-Damage Inducible Protein DDI1-Like
B23: OsPN29084 aa 1-253 (other)
chain: ESGIFRQILRGKLDLESDPWPSISDSAKDLVRNMLIRDPTKRFTAHEVLCHPWIVDDAVAPDKPIDSAVLSRLKHFSAMNKLKKMALRVIAESLSEEEIGGLKELFKMIDTDNSGTITYDELKNGLKRVGSDLMEPEIQALMDAADIDNSGTIDYGEFLAATLHMNKLEREENLVSAFTFFDKDGSGFITIDELSQACEQFGLSDVHLEDMIKDVDQNNDGQIDYSEFAAMMRKGNAGGANAGGVTSTGGTGR
notes: prey, AD fusion; also called Novel Protein PN29084, Fragment, Similar to Soybean Calcium-Dependent Protein Kinase

molecular target: T1, OsMADS45 aa 50-198; experiment: Y2H; output trait library
In short: (§1)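 Protein-protein interactions were detected in an automated, high-throughput yeast two-hybrid assay from Myriad Genetics Inc. (Salt Lake City, Utah), with a bait clone encoding a defined amino-acid fragment of a rice protein screened against the input trait or output trait rice prey library. Interacting proteins were identified by BLAST comparison of the encoding sequences of retrieved prey clones against databases.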

Binding result, binds:
B1, B2, B3, B4, B5, B6, B7, B8, B9

molecular target: T2, OsHOS59 aa 1-100; experiment: Y2H; output trait library
In short: as §1

Binding result, binds:
B10, B11, B12, B13, B14, B15, B16, B17

molecular target: T3, OsCS aa 316-583; experiment: Y2H; output trait library
In short: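 The values record whether an interaction was detected. In an automated, high-throughput yeast two-hybrid screen from Myriad Genetics Inc., rice protein fragments defined by amino-acid range were used as bait against rice prey clone libraries. Full-length genes were identified by BLAST comparison of the sequences encoding the interacting prey fragments against databases.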

Binding result, binds:
B18, B19, B20, B21, B22, B23
